Experimental data: patent publication US9290794B2, “Mutant protease biosensors with enhanced detection characteristics” (PROMEGA CORPORATION, priority 2010, dated 2016)
Where a chain is given by its changes, count along the chain named.

Key:
caspase-3 [1] = assay: Purified HQ:CBS:HT from E. coli immobilized on solid support, activation by Caspase-3; format: biochemical
caspase-3 [2] = assay: CBS expressed in E. coli, HisLink purification fractions, caspase-3 cleavage reaction; format: biochemical
Experimental: The CBS variant 1A5 was cloned into a bacterial expression vector (pFNA:HQ(5×):CBS:HT(7); SEQ ID NOs:73 and 74) containing HaloTag® (C-terminal to the CBS) and a 5×HQ tag (N-terminal to CBS). The fusion protein was expressed in E. coli as follows: E. coli (KRX) was transformed with the vector. A starter culture (50 mL, LB Broth) was inoculated from a single colony and grown for 17-22 hrs at 37° C. with shaking (275 rpm). The starter culture was diluted (1:50) into induction media (500 mL, LB Broth with 0.05% glucose and 0.02% rhamnose) and growth was continued for another 17-22 hrs at 25° C. with shaking (275 rpm). The culture was divided into two 250 mL aliquots, and cells were collected by centrifugation (5,000×g for 20 min at 4° C.). One cell pellet was re-suspended in Lysis Buffer (25 mL, 50 mM HEPES (pH 7.5), 0.2× FastBreak, 2 mM DTT, 0.05% CHAPS, 50 mM Arginine, 50 mM Glutamic acid, 0.2 mg/mL Lysozyme, 10 U/mL RQ1 DNase, and Protease Inhibitors (Beckton/Dickenson Cat. No. 544779)) and incubated on ice for 30 min. After incubation, the sample was sonicated (Misonix Sonicator-3000, 4 mM total, 5 sec on, 5 sec rest, Power Setting 5). The crude lysate was clarified by centrifugation (20,000×g for 20 min at 4° C.), and the supernatant (cleared lysate) was used as the CBS source. For the caspase-3 cleavage reaction, 20 μl of the cleared lysate was mixed with 20 μL E. coli lysate expressing caspase-3 (Example XII) and incubated at room temperature for 30 min. 60 μL HEPES pH 7.5 was added, followed by the addition of 100 μL Bright-Glo Assay Reagent. Luminescence was detected as previously described above (FIG. 20).
Briefly, 25 mL of cleared lysate was made 0.5 M in NaCl (final concentration) and applied to 2 mL of settled HisLink resin that had been equilibrated with Binding Buffer (100 mM HEPES (pH7.5), 10 mM Imidazole, 500 mM NaCl). The resin was washed with 12 mL of Binding Buffer followed by washing with Elution Buffer (100 mM HEPES (pH 7.5), 1000 mM Imidazole). 1.75 mL fractions were collected.
For SDS-PAGE gel analysis, samples were labeled with CA-TAM and analyzed as described previously (FIG. 21A). For caspase-3 cleavage reaction, 20 μl of each sample was mixed with 20 μL E. coli lysate expressing Caspase-3 (Example XII) and incubated at room temperature for 30 min. 60 μL HEPES pH 7.5 was added, followed by the addition of 100 μL Bright-Glo Assay Reagent. Luminescence was detected as previously described above (Table 10 and FIG. 21B).

caspase-3 [3] = assay: CBS variants transiently transfected in HEK293 cells, kinetic luminescence response to TRAIL treatment; format: cell-based; settings: for RESPONSE, IMPROVEMENT OVER TL-CP358-DEVD:DD: ratio of INDUCED to BASAL; for BASAL, IMPROVEMENT OVER TL-CP358-DEVD:DD: time (0); for greater RESPONSE compared with TL-CP358-DEVD:DD: live cells (FIGS. 2, 3)
Description: The Caspase-3 BioSensor (CBS) is a thermostable Photuris pennsylvanica luciferase (TL), circularly-permuted (CP) at amino acid 358, with a caspase-3 recognition site, i.e., one containing the caspase-3 recognition site comprising amino acids DEVD, at the junction between the TL fragments. The specific CBS that was used as the starting template is termed TL-CP358-DEVD:DD. The amino acid sequence of this CBS can be represented as: M/TL residues 358-544/SDEVDGSL/TL residues 4-354/V (SEQ ID NO:6). The amino acid positions in the CP TL correlate to those of the non-CP TL sequence (provided in the attached appendix). Upon treatment with caspase-3, CBS is cleaved at the recognition site allowing the two TL fragments to form a more favorable, higher activity, conformation.
The utility of CBS is the differential activity before and after cleavage by caspase-3. The basal activity of CBS is defined as the activity at assay time (O), before caspase-3 has had time to cleave at the recognition site. The induced activity is defined as the activity at some later time (t) after CBS has been cleaved by caspase-3. The response or fold increase in activity, is the ratio of induced to basal activity. Substitutions in TL-CP358-DEVD:DD were generated to develop CBS variants with enhanced responsivity to induction using the error-prone, mutagenic PCR-based system GeneMorph II (Stratagene; Daugherty, PNAS USA 97(5):2029 (2000)), according to manufacturer's instructions.
The resulting library was expressed in E. coli and screened for luciferase activity with and without pre-treatment with recombinant caspase-3 (data not shown). CBS variants having the best signal and response characteristics were then evaluated in HEK293 cells by kinetic assay measuring the response to TNF-α-related apoptosis inducing ligand (TRAIL) treatment (Wiley, S. R. et al., Immunity 3:673 (1995); Niles, A. L. et al., Meth. Mol. Biol. 414:137 (2008)). TRAIL induces apoptosis via activation of the death receptor to form active caspase-8, which in turn activates procaspase 3 to produce caspase-3. The appearance of active caspase-3 should be accompanied by an increase in luminescence as the CBS variants are cleaved and activated. Briefly, HEK293 cells, plated at 15,000 cells/well in a 96-well plate, were transiently transfected using TransIT-LTI (Mires Bio) with plasmid DNAs encoding various CBS variants with amino acid substitutions in TL-CP358-DEVD:DD. The same plasmids also carried a gene for constitutive expression of Renilla luciferase to act as a transfection control. Cells were pretreated with 2 mM luciferin for 2 hrs at 37° C. Cells were treated with 1 μg/mL TRAIL and assayed for 10 hrs at 37° C. Luminescence was monitored continuously over time (Luminometer: Varioskan Flash (Thermo) 1 sec integration time). Cells in replicate wells were lysed, at the time of TRAIL addition, i.e., time (0) and Renilla luciferase activity was measured. All biosensor data was then normalized for transfection efficiency using Renilla luciferase luminescence (Dual-GloAssay System; Promega Corporation).
Table 1 lists the variants of TL-CP358-DEVD:DD, identified by clone name, showing improved response to TRAIL treatment. Improvements listed in Table 1 are normalized to the parental TL-CP358-DEVD:DD CBS. “BASAL” represents the normalized biosensor luminescence at TRAIL addition, i.e., time (0), “INDUCED” represents the normalized biosensor luminescence at roughly 10 hrs after TRAIL addition, and “RESPONSE” represents the fold-induction, i.e., the ratio of INDUCED to BASAL activity.
Additional CBS variants were generated using the oligo-based site-directed mutagenesis kit Quik Change (Stratagene; Kunkel, PNAS USA 82(2):488 (1985)), according to the manufacturer's instructions. […]

[4] = HisLink purification sample HSS
[5] = HisLink purification sample NSM
[6] = HisLink purification sample WASH
[7] = Table 2 combination variants, roughly 10 hrs after TRAIL, HEK293
[8] = Table 2 combination variants, HEK293 as in Example I

B1: HQ:CBS:HT: 5×HQ tag:CBS (variant 1A5):HaloTag fusion protein expressed in E. coli (SEQ ID NOs:73 and 74) (protein)
chain: MKHQHQHQAIAMPGSTGKIVPLHAVKVVDPTTGKILGPNEPGELYFKGPMIMKGYYNNEEATKAIIDNDGWLRSGDIAYYDNDGHFYIVDRLKSLIKYKGYQVAPAEIEGILLQHPYIVDAGVTGIPDEAAGELPAAGVVVQTGKYLNEQIVQDYVASQVSIAKWLRGGVKFLDEIPKGSTGKIDRKVLRQMLEKHTNGSDEVDGSLKNILYGPEPFYPLEDGTAGEQMFDALSRYAAIPGCIALTNAHTKENVLYEEFLKLSCRLAESFKKYGLKQNDTIAVCSENSLQFFLPVIASLYLGIIVAPVNDKYIERELIHSLGIVKPRIVFCSKNTFQKVLNVKSKLKSIETIIILDLNEDLGGYQCLNNFISQNSDSNLDVKKFKPYSFNRDDQVASIMFSSGTTGLPKGVMLTHKNIVARFSIAKDPTFGNAINPTSAILTVIPFHHGFGMMTTLGYFTCGFRVVLMHTFEEKLFLQSLQDYKVESTLLVPTLMAFLAKSALVEKYDLSHLKEIASGGAPLSKEIGEMVKKRFKLNFVRQGYGLTETTSAVLITPKGVSLEPTTEDLYFQSDNDGSEIGTGFPFDPHYVEVLGERMHYVDVGPRDGTPVLFLHGNPTSSYVWRNIIPHVAPTHRCIAPDLIGMGKSDKPDLGYFFDDHVRFMDAFIEALGLEEVVLVIHDWGSALGFHWAKRNPERVKGIAFMEFIRPIPTWDEWPEFARETFQAFRTTDVGRKLIIDQNVFIEGTLPMGVVRPLTEVEMDHYREPFLNPVDREPLWRFPNELPIAGEPANIVALVEEYMDWLHQSPVPKLLFWGTPGVLIPPAEAARLAKSLPNCKAVDIGPGLNLLQEDNPDLIGSEIARWLSTLEISG
caspase-3 [1]; column HaloLink-Plate
  BASAL luminescence: 6,880
  INDUCED luminescence: 661,597
  RESPONSE: 96
caspase-3 [1]; column HisLink
  BASAL luminescence: 193,268
  INDUCED luminescence: 40,913,496
  RESPONSE: 212
caspase-3 [2]; HisLink elution fraction E1
  BASAL luminescence: 4,221
  INDUCED luminescence: 2,951,899
  RESPONSE: 699
caspase-3 [2]; HisLink elution fraction E2
  BASAL luminescence: 193,268
  INDUCED luminescence: 40,913,496
  RESPONSE: 212
caspase-3 [2]; HisLink elution fraction E3
  BASAL luminescence: 18,454
  INDUCED luminescence: 3,287,059
  RESPONSE: 178
caspase-3 [2]; HisLink elution fraction E4
  BASAL luminescence: 1,130
  INDUCED luminescence: 215,580
  RESPONSE: 191
caspase-3 [2]; HisLink elution fraction E5
  BASAL luminescence: 270
  INDUCED luminescence: 48,068
  RESPONSE: 178
caspase-3 [2]; [4]
  BASAL luminescence: 301,304
  INDUCED luminescence: 12,875,742
  RESPONSE: 43
caspase-3 [2]; [5]
  BASAL luminescence: 176,259
  INDUCED luminescence: 5,822,003
  RESPONSE: 33
caspase-3 [2]; [6]
  BASAL luminescence: 7,734
  INDUCED luminescence: 3,706,541
  RESPONSE: 479

B2: 01:A-05: CBS variant of TL-CP358-DEVD:DD, 507TI (SEQ ID NOs:7 and 8) (protein)
chain: MPGSTGKIVPLHAVKVVDPTTGKILGPNEPGELYFKGPMIMKGYYNNEEATKAIIDNDGWLRSGDIAYYDNDGHFYIVDRLKSLIKYKGYQVAPAEIEGILLQHPYIVDAGVTGIPDEAAGELPAAGVVVQTGKYLNEQIVQDYVASQVSIAKWLRGGVKFLDEIPKGSTGKIDRKVLRQMLEKHTNGSDEVDGSLKNILYGPEPFYPLEDGTAGEQMFDALSRYAAIPGCIALTNAHTKENVLYEEFLKLSCRLAESFKKYGLKQNDTIAVCSENSLQFFLPVIASLYLGIIVAPVNDKYIERELIHSLGIVKPRIVFCSKNTFQKVLNVKSKLKSIETIIILDLNEDLGGYQCLNNFISQNSDSNLDVKKFKPYSFNRDDQVASIMFSSGTTGLPKGVMLTHKNIVARFSIAKDPTFGNAINPTSAILTVIPFHHGFGMMTTLGYFTCGFRVVLMHTFEEKLFLQSLQDYKVESTLLVPTLMAFLAKSALVEKYDLSHLKEIASGGAPLSKEIGEMVKKRFKLNFVRQGYGLTETTSAVLITPKGV
caspase-3 [3]; Table 1, fold-induction, normalized to parental
  RESPONSE, IMPROVEMENT OVER TL-CP358-DEVD:DD: 3.6 fold
caspase-3 [3]; Table 1, normalized biosensor luminescence at TRAIL addition, HEK293, normalized to parental
  BASAL, IMPROVEMENT OVER TL-CP358-DEVD:DD: 0.2 fold
caspase-3 [3]; Table 1, normalized luminescence roughly 10 hrs after 1 μg/mL TRAIL, HEK293, normalized to parental
  INDUCED, IMPROVEMENT OVER TL-CP358-DEVD:DD: 0.6 fold
caspase-3 [3]; after 2 hrs TRAIL treatment
  greater RESPONSE compared with TL-CP358-DEVD:DD: 2 times
caspase-3 [3]; after 10 hrs TRAIL treatment
  greater RESPONSE compared with TL-CP358-DEVD:DD: about 4.8 times

B3: FC7: 43: CBS variant, 471IT 503SG 507TI (SEQ ID NOs:11 and 12) (protein)
chain: B2 chain with I115T, S147G
caspase-3 [3]; Table 2 combination variants
  RESPONSE, IMPROVEMENT OVER TL-CP358-DEVD:DD: 6.735 fold
caspase-3 [3]; [7]
  INDUCED, IMPROVEMENT OVER TL-CP358-DEVD:DD: 0.189 fold
caspase-3 [3]; [8]
  BASAL, IMPROVEMENT OVER TL-CP358-DEVD:DD: 0.028 fold
caspase-3 [3]; after 10 hrs TRAIL treatment
  greater RESPONSE compared with TL-CP358-DEVD:DD: about 2.2 times

B4: FC7: 24: CBS variant, 193SP 471IT 503SG 507TI (SEQ ID NOs:9 and 10) (protein)
chain: B2 chain with I115T, S147G, S386P
caspase-3 [3]; Table 2 combination variants
  RESPONSE, IMPROVEMENT OVER TL-CP358-DEVD:DD: 5.480 fold
caspase-3 [3]; [7]
  INDUCED, IMPROVEMENT OVER TL-CP358-DEVD:DD: 0.191 fold
caspase-3 [3]; [8]
  BASAL, IMPROVEMENT OVER TL-CP358-DEVD:DD: 0.035 fold
caspase-3 [3]; after 2 hrs TRAIL treatment
  greater RESPONSE compared with TL-CP358-DEVD:DD: about 2 times

B5: FC7: 49: CBS variant, 193SP 503SG 507TI (SEQ ID NOs:13 and 14) (protein)
chain: B2 chain with S147G, S386P
caspase-3 [3]; Table 2 combination variants
  RESPONSE, IMPROVEMENT OVER TL-CP358-DEVD:DD: 5.115 fold
caspase-3 [3]; [7]
  INDUCED, IMPROVEMENT OVER TL-CP358-DEVD:DD: 0.852 fold
caspase-3 [3]; [8]
  BASAL, IMPROVEMENT OVER TL-CP358-DEVD:DD: 0.167 fold
caspase-3 [3]; after 2 hrs TRAIL treatment
  greater RESPONSE compared with TL-CP358-DEVD:DD: about 2 times
